One molecule from patent US20240270846A1 (published 2024) can be followed below.

In the assay the target is T1, biotin-labeled cynomolgus monkey CD137 fused to human IgG1 Fc fragment (cynomolgus monkey, UniProt Q07011 24-186 (human entry), limits assumed, biotin-labeled).
T1 construct: the assay used the fusion to human IgG1 Fc; also called cyno CD137-Fc
T1 chain: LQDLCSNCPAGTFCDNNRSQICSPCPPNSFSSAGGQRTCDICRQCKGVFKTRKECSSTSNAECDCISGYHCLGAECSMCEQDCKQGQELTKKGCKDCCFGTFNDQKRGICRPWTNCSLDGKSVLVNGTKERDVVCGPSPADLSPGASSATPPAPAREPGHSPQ
Briefly: beads ELISA, biotin labeled cyno CD137-Fc. In general terms: In an ELISA, binding on a coated surface is turned into a signal by an enzyme label.

Protocol: First, 20 micro g of Streptavidin-coated magnetic beads MyOne-T1 beads was washed three-times with blocking buffer including 0.5× block Ace, 0.02% Tween and 0.05% ProClin 300 and then blocked with this blocking buffer at room temperature for 60 minutes or more. […] After that each well was washed with TBST. […] The plate was incubated for one hour. […] 2 minutes later the fluorescence of each well was detected.

B1: DADU01_3 #001 (antibody, human IgG1, V domains shown)
VH: QVQLVESGGGLVQPGRSLRLSCAASGFTFSIAWMHWVRQAPGKGLEWVAQIKDRVNAYEAYYAPSVKGRFTISRDDSKNSIYLQMNSLKTEDTAVYYCRYVHYASYYDLLGYGGVDAWGQGTTVTVSS
VL: DIVMTQSPLSLPVTPGEPASISCRSSQSLVHSNRNTYLHWYQQKPGQAPRLLIYKVSNRFSGVPDRFSGSGSGTDFTLKISRVEAEDVGVYYCGQGTQVPYTFGQGTKLEIK
notes: VH in human IgG1 CH1-Fc plasmid; GLS3000 light chain; also called dBBDu_126; dBBDu126
For B1, the binding result is “no binding (tested: 25 micro L of 50 ng/micro L purified IgG)”.
